This is an account of results in patent US20020034812.

To fix the notation:
T1: 35S-methionine-labeled His6-tagged murine caspase-14
T1 sequence: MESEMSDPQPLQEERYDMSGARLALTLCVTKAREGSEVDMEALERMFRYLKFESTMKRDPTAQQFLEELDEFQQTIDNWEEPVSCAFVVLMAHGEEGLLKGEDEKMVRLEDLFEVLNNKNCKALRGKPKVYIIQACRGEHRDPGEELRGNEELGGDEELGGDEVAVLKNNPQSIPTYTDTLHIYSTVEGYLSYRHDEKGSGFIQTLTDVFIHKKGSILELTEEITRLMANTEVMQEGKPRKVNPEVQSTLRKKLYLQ

T2: radiolabeled murine caspase-3 (UniProt P70677)
T2 sequence: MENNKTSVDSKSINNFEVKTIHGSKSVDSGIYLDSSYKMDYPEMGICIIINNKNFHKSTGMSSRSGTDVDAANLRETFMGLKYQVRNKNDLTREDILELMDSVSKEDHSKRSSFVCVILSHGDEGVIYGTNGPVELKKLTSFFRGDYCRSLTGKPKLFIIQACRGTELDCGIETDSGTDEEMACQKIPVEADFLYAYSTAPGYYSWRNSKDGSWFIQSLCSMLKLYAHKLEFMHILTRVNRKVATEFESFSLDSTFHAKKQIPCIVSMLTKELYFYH

T3: 35S-methionine-labeled His6-tagged murine caspase-14
T3 chain: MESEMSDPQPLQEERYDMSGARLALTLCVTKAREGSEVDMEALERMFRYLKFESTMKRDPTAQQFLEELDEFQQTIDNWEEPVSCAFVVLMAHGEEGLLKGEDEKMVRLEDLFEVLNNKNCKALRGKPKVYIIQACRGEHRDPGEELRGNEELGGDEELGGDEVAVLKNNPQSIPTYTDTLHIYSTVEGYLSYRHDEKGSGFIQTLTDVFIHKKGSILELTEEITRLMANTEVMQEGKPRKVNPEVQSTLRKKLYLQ

B1: purified murine caspase-1 (protein)
chain: NKEDGTFPGLTGTLKFCPLEKAQKLWKENPSEIYPIMNTTTRTRLALIICNTEFQHLSPRVGAQVDLREMKLLLEDLGYTVKVKENLTALEMVKEVKEFAACPEHKTSDSTFLVFMSHGIQEGICGTTYSNEVSDILKVDTIFQMMNTLKCPSLKDKPKVIIIQACRGEKQGVVLLKDSVRDSEEDFLTDAIFEDDGIKKAHIEKDFIAFCSSTPDNVSWRHPVRGSLFIESLIKHMKEYAWSCDLEDIFRKVRFSFEQPEFRLQMPTADRVTLTKRFYLFPGH
B2: purified murine caspase-3 (protein)
chain: SGIYLDSSYKMDYPEMGICIIINNKNFHKSTGMSSRSGTDVDAANLRETFMGLKYQVRNKNDLTREDILELMDSVSKEDHSKRSSFVCVILSHGDEGVIYGTNGPVELKKLTSFFRGDYCRSLTGKPKLFIIQACRGTELDCGIETDSGTDEEMACQKIPVEADFLYAYSTAPGYYSWRNSKDGSWFIQSLCSMLKLYAHKLEFMHILTRVNRKVATEFESFSLDSTFHAKKQIPCIVSMLTKELYFYH
B3: purified murine granzyme B (protein)
chain: IIGGHEVKPHSRPYMALLSIKDQQPEAICGGFLIREDFVLTAAHCEGSIINVTLGAHNIKEQEKTQQVIPMVKCIPHPDYNPKTFSNDIMLLKLKSKAKRTRAVRPLNLPRRNVNVKPGDVCYVAGWGRMAPMGKYSNTLQEVELTVQKDRECESYFKNRYNKTNQICAGDPKTKRASFRGDSGGPLVCKKVAAGIVSYGYKDGSPPRAFTKVSSFLSWIKKTMKSS
B4: purified murine caspase-2 (protein)
chain: GPPCLLVKPCTPEFYQAHYQLAYRLQSQPRGLALVLSNVHFTGEKDLEFRSGGDVDHTTLVTLFKLLGYNVHVLHDQTAQEMQEKLQNFAQLPAHRVTDSCVVALLSHGVEGGIYGVDGKLLQLQEVFRLFDNANCPSLQNKPKMFFIQACRGDETDRGVDQQDGKNHTQSPGCEESDAGKEELMKMRLPTRSDMICGYACLKGNAAMRNTKRGSWYIEALTQVFSERACDMHVADMLVKVNALIKEREGYAPGTEFHRCKEMSEYCSTLCQQLYLFPGYPPT
B5: purified murine caspase-6 (protein)
chain: GFYKSREVFDPAEQYKMDHKRRGVALIFNHERFFWHLTLPERRGTNADRDNLTRRFSDLGFEVKCFNDLRAEELLLKIHEVSTSSHIDADCFICVFLSHGEGNHVYAYDAKIEIQTLTGLFKGDKCQSLVGKPKIFIIQACRGSQHDVPVVPLDMVDHQTDKLDNVTQVDAASVYTLPAGADFLMCYSVAEGYYSHRETVNGSWYIQDLCEMLARYGSSLEFTELLTLVNRKVSQRRVDFCKDPDAIGKKQVPCFASMLTKKLHFCPKPSK
B6: purified murine caspase-7 (protein)
chain: AKPDRSSIISSILLKKKRNASAGPVRTGRDRVPTYLYRMDFQKMGKCIIINNKNFDKATGMDVRNGTDKDAGALFKCFQNLGFEVTVHNDCSCAKMQDLLRKASEEDHSNSACFACVLLSHGEEDLIYGKDGVTPIKDLTAHFRGDRCKTLLEKPKLFFIQACRGTELDDGIQADSGPINDIDANPRNKIPVEADFLFAYSTVPGYYSWRNPGKGSWFVQALCSILNEHGKDLEIMQILTRVNDRVARHFESQSDDPRFNEKKQIPCMVSMLTKELYFSR
B7: purified murine caspase-11 (protein)
chain: PGSHHGEANLEMEEPEESLNTLKLCSPEEFTRLCREKTQEIYPIKEANGRTRKALIICNTEFKHLSLRYGANFDIIGMKGLLEDLGYDVVVKEELTAEGMESEMKDFAALSEHQTSDSTFLVLMSHGTLHGICGTMHSEKTPDVLQYDTIYQIFNNCHCPGLRDKPKVIIVQACRGGNSGEMWIRESSKPQLCRGVDLPRNMEADAVKLSHVEKDFIAFYSTTPHHLSYRDKTGGSYFITRLISCFRKHACSCHLFDIFLKVQQSFEKASIHSQMPTIDRATLTRYFYLFPGN

The first series relates to T1, 35S-methionine-labeled His6-tagged murine caspase-14.
As for “murine caspase-8 (prodomain-deleted, lysate of E. coli expressing pLT-DpromCASP-8)”, the “in vitro cleavage of 35S-methionine-labeled His6-tagged murine caspase-14, SDS-PAGE and autoradiography” value was “murine caspase-8 cleaved this 35.5 kDa murine caspase-14 weakly into 24 kDa (p18) and 11 kDa (p11) fragments”.

The next series addresses T2, radiolabeled murine caspase-3.
As to “murine caspase-8 (prodomain-deleted, lysate of E. coli expressing pLT-DpromCASP-8)”, the “efficiency of proteolysis by serial 1:5 dilution of caspase-8 lysate, caspase-3 against caspase-14 as substrate” value is listed as “proteolytic activity of caspase-8 was at least 1000 times more efficient on caspase-3 than on murine caspase-14”.

Another series deals with T3, 35S-methionine-labeled His6-tagged ….
Regarding B1, the “in vitro cleavage of radiolabeled caspase-14” value was “none of the active enzyme preparations were able to cleave caspase-14”.

For B2, the “in vitro cleavage of radiolabeled caspase-14” value was “none of the active enzyme preparations were able to cleave caspase-14”.

As for B3, the “in vitro cleavage of radiolabeled caspase-14” value is “none of the active enzyme preparations were able to cleave caspase-14”.

Consider B4, for which the “in vitro cleavage of radiolabeled caspase-14” value is on record as “none of the active enzyme preparations were able to cleave caspase-14”.

For the molecule B5, the “in vitro cleavage of radiolabeled caspase-14” value was “none of the active enzyme preparations were able to cleave caspase-14”.

Consider B6, for which the “in vitro cleavage of radiolabeled caspase-14” value is listed as “none of the active enzyme preparations were able to cleave caspase-14”.

Take B7: the “in vitro cleavage of radiolabeled caspase-14” value was “none of the active enzyme preparations were able to cleave caspase-14”.
